How the values were obtained:
[1] = system: Green Fluorescent Protein (GFP) driven by the LexA promoter; assay type: cell-based, E. coli; conditions: different IPTG concentrations
From the text: In order to prevent interference from endogenous E. coli LexA, we used the mutant LexA-408, and its corresponding promoter which is not recognized by the wild type LexA. We fused LexA DBD to a monomeric LBD that undergoes ligand-induced homodimerization. Thus, in the presence of ligand, LexA DBD should be able to bind DNA and repress target gene expression.
We used a single-domain VHH camelid antibody that can be dimerized upon binding to its ligand caffeine (termed VHH-Caffeine from herein). As a negative control we chose a VHH targeting RNase A (termed VHH-Control from herein).
Detection of caffeine using a LexA-VHH fusion. We built two chimeric proteins, expressed in E. coli cytoplasm, composed of an N-terminal LexA DBD and a C-terminal VHH, and placed their expression under the control of the pLacO1 promoter induced by isopropyl β-D-1-thiogalactopyranoside (IPTG). As a reporter, we used the Green Fluorescent Protein (GFP) driven by the LexA promoter. As positive and negative controls, we expressed full-length LexA and LexA DBD. […] We then characterized the behavior of cells expressing LexAVHH-Caffeine and LexA-VHH-Control in response to increasing concentrations of IPTG and caffeine (data not shown). […] We then monitored the response of the LexA-VHH fusions to increasing concentrations of caffeine at different IPTG concentrations. […] We calculated the fold repression of LexA-VHH-Caffeine.

[2] = system: reporter GFP through pCadBA promoter; experiment: Activation of CadC transcriptional factor by periplasmic GCN4 domain oligomerization, GFP reporter, flow cytometry; assay type: cell-based, E. coli; conditions: compared to construct without GCN4; 1 mM IPTG
From the text: CadC and LexA transcriptional factor DNA binding domain, Leucine zipper GCN4, VHHcafe and VHHRNase were synthesized by INTEGRATED DNA TECHNOLOGIES® (IDT®). Different DNA components such as GFP reporter, CadBA promoter, pLexA promoter and CadC variants were constructed into BIOBRICK® standard vector pSB4K5 by Gibson assembly methods. The resulting constructs were transformed into E. coli strain NEB®10beta (NEW ENGLAND BIOLABS®, NEB®) and determined their performance. In all constructs, the expression level of CadC variants are under the control of pLac-1 promoter, which can be induced by IPTG. The CadC variants control the expression of reporter GFP through pCadBA promoter.
Pick a single colony of CadC operating unit variant into 3 mL of LB/kanamycin medium and incubate in 37° C. overnight with vigorous shaking. The overnight culture is further diluted 100 fold into 3 mL of LB/kanamycin medium and incubated in 37° C. for 4 hours to reach to exponential phase (O.D=0.4˜0.6). […] The resulting cell culture was further analyzed with ATTUNE® NxT flow cytometer. […]

Molecule	response to increasing concentrations of caffeine [1]	fold activation of downstream reporter gene (GFP) expression [2]
full-length LexA: full-length LexA transcriptional repressor, positive control (protein, UniProt P0A7C2 1-202, looked up, full-length, full-length LexA transcriptional repressor, positive control) MKALTARQQEVFDLIRDHISQTGMPPTRAEIAQRLGFRSPNAAEEHLKALARKGVIEIVSGASRGIRLLQEEEEGLPLVGRVAAGEPLLAQQHIEGHYQVDPSLFKPNADFLLRVSGMSMKDIGIMDGDLLAVHKTQDVRNGQVVVARIDDEVTVKRLKKQGNKVELLPENSEFKPIVVDLRQQSFTIEGLAVGVIRNGDWL	not affected by caffeine	–
CadC-wtTM-GCN4: CadC DNA binding domain, wild type CadC transmembrane region, C-terminal autodimerization leucine zipper GCN4 (protein) MQQPVVRVGEWLVTPSINQISRNGRQLTLEPRLIDLLVFFAQHSGEVLSRDELIDNVWKRSIVTNHVVTQSISELRKSLKDNDEDSPVYIATVPKRGYKLMVPVIWYSEEEGEEIMLSSPPPIPEAVPATDSPSHSLNIQNTATPPEQSPVKSKRFTTFWVWFFFLLSLGICVALVAFSSLDTRLPMLEDKVEELLSKNYHLENEVARL	–	50 fold

Source: patent US12517124B2, “Chimeric receptor for use in whole-cell sensors for detecting analytes of interest” (INSERM (Institut National de la Sante et de la Recherche …, priority 2017, dated 2026)
